We go through 3 molecules from doi:10.1101/705459 (bioRxiv, 2019).

The term Kd denotes the constant that tells how readily two partners part at equilibrium. As usually defined, the koff is the rate constant with which the complex falls apart. Low values mean a long-lived complex, high ones a short-lived complex. In general, kon refers to the second-order rate constant of association. The low end stands for slow association, the high end for fast association. What is called IC50 is the concentration that inhibits the measured activity by half.

B1: Peptide S16 (canstatin-derived 15-mer) (peptide)
peptide: PAIAIAVHSQDVSIP
B3: Peptide U12 (canstatin-derived 15-mer) (peptide)
peptide: VSIGYLLVKHSQTDQ

In assay [1] the target is T1, CMG2-GST-biotin (human CMG2 vWA domain 40-217, [change], [change], GST fusion, biotin-labelled) (human, UniProt P58335 40-217).
T1 chain: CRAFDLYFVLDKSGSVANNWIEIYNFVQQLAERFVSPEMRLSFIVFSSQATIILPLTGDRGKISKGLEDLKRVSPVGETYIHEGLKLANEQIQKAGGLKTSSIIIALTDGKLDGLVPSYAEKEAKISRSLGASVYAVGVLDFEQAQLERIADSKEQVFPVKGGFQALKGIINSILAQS
Kind of assay: BLI. In general terms: Biolayer interferometry detects binding as a change in optical thickness at a sensor tip.

For assay [2], the target named is T2, CMG2-488 (human CMG2 vWA domain 40-217, [change], [change], AlexaFluor 488) (human, UniProt P58335 40-217).
T2 chain: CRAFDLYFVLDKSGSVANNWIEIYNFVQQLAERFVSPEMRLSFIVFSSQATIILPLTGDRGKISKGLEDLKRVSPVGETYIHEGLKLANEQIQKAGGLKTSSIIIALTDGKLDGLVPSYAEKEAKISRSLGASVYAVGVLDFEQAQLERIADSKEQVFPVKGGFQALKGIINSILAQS
The experiment in a line: FRET or BRET. In general terms: In BRET a luciferase serves as donor, and the signal depends on an acceptor being close.

For assay [3], the target named is B1. The experiment in a line: peptide or protein array.
For assay [4], the target named is B3. Kind of assay: peptide or protein array.

In assay [1], B1 had a Kd of 400 nM, a koff of about 0.0001 s⁻¹ and a kon of about 200 M⁻¹ s⁻¹. In addition, in assay [2], the IC50 was determined as 2700 nM and the affinity, expressed as Kd, was 100 ± 55 nM.

B2: CMG2-biotin (human CMG2 vWA domain 40-217, [change], [change], biotin-labelled) (domain or fragment)
chain: CRAFDLYFVLDKSGSVANNWIEIYNFVQQLAERFVSPEMRLSFIVFSSQATIILPLTGDRGKISKGLEDLKRVSPVGETYIHEGLKLANEQIQKAGGLKTSSIIIALTDGKLDGLVPSYAEKEAKISRSLGASVYAVGVLDFEQAQLERIADSKEQVFPVKGGFQALKGIINSILAQS
Take B2: the binding result in assay [3] and in assay [4] was “binds” each time.
In assay [1], B3 registered a Kd of 80000 nM. In assay [2], this molecule displayed an IC50 of 35000 nM.
